# Measured values as given in patent publication US20030220243A1 (Eli Lilly, published 2003).
# Numbering of substitutions follows the chain as printed. Ends that are not written are not given here.
# B1: Val^8-Lys^20-GLP-1(7-37)OH (peptide)
# peptide: HVEGTFTSDVSSYKEGQAAKEFIAWLVKGRG
# B2: Val^8-Pro^22-GLP-1(7-37)OH (peptide)
# peptide: B1 peptide with K14L, G16P
# B3: Val^8-Tyr^16-GLP-1(7-37)OH (peptide)
# peptide: B1 peptide with V10Y, K14L
# B4: Val^8-Lys^11-GLP-1(7-37)OH (peptide)
# peptide: B1 peptide with T5K, K14L
# B5: Val^8-Glu^34-GLP-1(7-37)OH (peptide)
# peptide: B1 peptide with K14L, K28E
# B6: Val^8-Ser^22-GLP-1(7-37)OH (peptide)
# peptide: B1 peptide with K14L, G16S
# B7: Val^8-Ala^33-GLP-1(7-37)OH (peptide)
# peptide: B1 peptide with K14L, V27A
# B8: Val^8-Glu^16-GLP-1(7-37)OH (peptide)
# peptide: B1 peptide with V10E, K14L
# B9: Val^8-His^27-GLP-1(7-37)OH (peptide)
# peptide: B1 peptide with K14L, E21H
# B10: Gly^8-Glu^30-GLP-1(7-37)OH (peptide)
# peptide: B1 peptide with V2G, K14L, A24E
# B11: Val^8-Asp^30-GLP-1(7-37)OH (peptide)
# peptide: B1 peptide with K14L, A24D
# B12: Ala^8-His^26-GLP-1(7-37)OH (peptide)
# peptide: B1 peptide with V2A, K14L, K20H
# B13: Val^8-Ala^22-GLP-1(7-37)OH (peptide)
# peptide: B1 peptide with K14L, G16A
# B14: Val^8-Gly^34-Lys^35-GLP-1(7-37)OH (peptide)
# peptide: B1 peptide with K14L, K28G, G29K
# B15: Val^8-Lys^33-Asn^34-GLP-1(7-37)OH (peptide)
# peptide: B1 peptide with K14L, V27K, K28N
# B16: Val^8-Ala^16-GLP-1(7-37)OH (peptide)
# peptide: B1 peptide with V10A, K14L
# B17: Val^8-Glu^36-GLP-1(7-37)OH (peptide)
# peptide: B1 peptide with K14L, R30E
# B18: Val^8-Glu^33-GLP-1(7-37)OH (peptide)
# peptide: B1 peptide with K14L, V27E
# B19: Val^8-Asp^22-GLP-1(7-37)OH (peptide)
# peptide: B1 peptide with K14L, G16D
# B20: Val^8-Leu^16-Glu^26-GLP-1(7-37)OH (peptide)
# peptide: B1 peptide with V10L, K14L, K20E
# B21: Val^8-Lys^22-GLP-1(7-37)OH (peptide)
# peptide: B1 peptide with K14L, G16K
# B22: Val^8-His^35-GLP-1(7-37)OH (peptide)
# peptide: B1 peptide with K14L, G29H
# B23: Val^8-Lys^24-GLP-1(7-37)OH (peptide)
# peptide: B1 peptide with K14L, A18K
# B24: Val^8-Ser^30-GLP-1(7-37)OH (peptide)
# peptide: B1 peptide with K14L, A24S
# B25: Val^8-His^30-GLP-1(7-37)OH (peptide)
# peptide: B1 peptide with K14L, A24H
# B26: Val^8-Lys^23-GLP-1(7-37)OH (peptide)
# peptide: B1 peptide with K14L, Q17K
# B27: Gln^22-GLP-1(7-37)OH (peptide)
# peptide: B1 peptide with V2A, K14L, G16Q
# B28: Val^8-Lys^33-Val^34-GLP-1(7-37)OH (peptide)
# peptide: B1 peptide with K14L, V27K, K28V
# B29: Val^8-Tyr^12-GLP-1(7-37)OH (peptide)
# peptide: B1 peptide with F6Y, K14L
# B30: Val^8-Glu^30-GLP-1(7-37)OH (peptide)
# peptide: B1 peptide with K14L, A24E
# B31: Val^8-His^36-GLP-1(7-37)OH (peptide)
# peptide: B1 peptide with K14L, R30H
# B32: Val^8-Pro^35-GLP-1(7-37)OH (peptide)
# peptide: B1 peptide with K14L, G29P
# B33: Gly^8-His^11-GLP-1(7-37)OH (peptide)
# peptide: B1 peptide with V2G, T5H, K14L
# B34: Val^8-Lys^22-Glu^30-GLP-1(7-37)OH (peptide)
# peptide: B1 peptide with K14L, G16K, A24E
# B35: Val^8-Ala^11-GLP-1(7-37)OH (peptide)
# peptide: B1 peptide with T5A, K14L
# B36: Val^8-His^37-GLP-1(7-37)OH (peptide)
# peptide: B1 peptide with K14L, G31H
# B37: Val^8-Glu^22-Lys^23-GLP-1(7-37)OH (peptide)
# peptide: B1 peptide with K14L, G16E, Q17K
# B38: Ala^8-Glu^26-GLP-1(7-37)OH (peptide)
# peptide: B1 peptide with V2A, K14L, K20E
# B39: Val^8-Glu^35-GLP-1(7-37)OH (peptide)
# peptide: B1 peptide with K14L, G29E
# B40: Val^8-His^24-GLP-1(7-37)OH (peptide)
# peptide: B1 peptide with K14L, A18H
# B41: Val^8-Gly^33-GLP-1(7-37)OH (peptide)
# peptide: B1 peptide with K14L, V27G
# B42: Val^8-His^22-GLP-1(7-37)OH (peptide)
# peptide: B1 peptide with K14L, G16H
# B43: Val^8-Gly^36-Pro^37-GLP-1(7-37)NH2 (peptide)
# peptide: HVEGTFTSDVSSYLEGQAAKEFIAWLVKGGP-NH2
# B44: Val^8-Glu^22-GLP-1(7-36)NH2 (peptide)
# peptide: HVEGTFTSDVSSYLEEQAAKEFIAWLVKGR-NH2
# B45: Val^8-Lys^22-Glu^23-GLP-1(7-37)OH (peptide)
# peptide: HVEGTFTSDVSSYLEKEAAKEFIAWLVKGRH
# B46: Val^8-Glu^23-GLP-1(7-36)OH (peptide)
# peptide: HVEGTFTSDVSSYLEGEAAKEFIAWLVKGR
# B47: Val^8-Lys^22-GLP-1(7-36)NH2 (peptide)
# peptide: HVEGTFTSDVSSYLEKQAAKEFIAWLVKGR-NH2
# Target: GLP-1 receptor
# Assay: cell-based or functional assay
row,Binder,GLP-1 Receptor Activation
1,B1,0.33 relative to GLP-1(7-37)OH
2,B2,0.01 relative to GLP-1(7-37)OH
3,B3,1.18 relative to GLP-1(7-37)OH
4,B4,0.001 relative to GLP-1(7-37)OH
5,B5,0.17 relative to GLP-1(7-37)OH
6,B6,0.5 relative to GLP-1(7-37)OH
7,B7,0.1 relative to GLP-1(7-37)OH
8,B8,0.047 relative to GLP-1(7-37)OH
9,B9,0.37 relative to GLP-1(7-37)OH
10,B10,0.29 relative to GLP-1(7-37)OH
11,B11,0.15 relative to GLP-1(7-37)OH
12,B12,0.8 relative to GLP-1(7-37)OH
13,B13,0.56 relative to GLP-1(7-37)OH
14,B14,0.34 relative to GLP-1(7-37)OH
15,B15,0.09 relative to GLP-1(7-37)OH
16,B16,0.112 relative to GLP-1(7-37)OH
17,B17,0.11 relative to GLP-1(7-37)OH
18,B18,0.039 relative to GLP-1(7-37)OH
19,B19,0.4 relative to GLP-1(7-37)OH
20,B20,0.23 relative to GLP-1(7-37)OH
21,B21,0.58 relative to GLP-1(7-37)OH
22,B22,0.41 relative to GLP-1(7-37)OH
23,B23,0.02 relative to GLP-1(7-37)OH
24,B24,0.19 relative to GLP-1(7-37)OH

row,Binder,GLP-1 Receptor Activation
1,B25,0.19 relative to GLP-1(7-37)OH
2,B26,0.18 relative to GLP-1(7-37)OH
3,B27,0.42 relative to GLP-1(7-37)OH
4,B28,0.08 relative to GLP-1(7-37)OH
5,B29,0.81 relative to GLP-1(7-37)OH
6,B30,0.29 relative to GLP-1(7-37)OH
7,B31,0.22 relative to GLP-1(7-37)OH
8,B32,0.094 relative to GLP-1(7-37)OH
9,B33,0.282 relative to GLP-1(7-37)OH
10,B34,0.37 relative to GLP-1(7-37)OH
11,B35,0.021 relative to GLP-1(7-37)OH
12,B36,0.33 relative to GLP-1(7-37)OH
13,B37,1.43 relative to GLP-1(7-37)OH
14,B38,0.7 relative to GLP-1(7-37)OH
15,B39,0.15 relative to GLP-1(7-37)OH
16,B40,0.007 relative to GLP-1(7-37)OH
17,B41,0.01 relative to GLP-1(7-37)OH
18,B42,0.14 relative to GLP-1(7-37)OH
19,B43,0.53 relative to GLP-1(7-37)OH
20,B44,1 relative to GLP-1(7-37)OH
21,B45,0.35 relative to GLP-1(7-37)OH
22,B46,0.28 relative to GLP-1(7-37)OH
23,B47,0.53 relative to GLP-1(7-37)OH
